One assay concerns the target T1, GST_Akt1^S473D (UniProt P31749 1-480, S473D).
T1 construct: Akt1 with the phosphomimetic S473D, called constitutively active; also called purified GST-tagged Akt1S473D; GST-tagged active Akt
Briefly: pull-down; GST pull-down: 15 µM FKBPs or Cyp40 with 22 µM GST_Akt1 S473D or GST_Akt1 S473D_ΔPH on glutathione resin, 3 h, 4 °C, NETN buffer (20 mM Tris-HCl pH 8.0, 100 mM NaCl, 1 mM EDTA, 0.5% igepal); AMP-PNP (5 mM), rapamycin (1 µM) or DMSO where indicated; Western blot. The conditions noted are these: both partners purified.

Assay [1] deals with T2, purified inactive Akt1 (untagged) (UniProt P31749 1-480).
T2 construct: source: bought: Merck Millipore
Kind of assay: pull-down; FLAG pull-down: FLAG column saturated with FKBP51_FLAG, 20 µM inactive Akt, NETN buffer, 4 °C overnight, eluted with FLAG peptide; Western blot. The conditions noted are these: both partners purified. A general note: In western blotting, separated proteins are transferred to a membrane and probed.

T1 sequence (P31749 whole entry S473D): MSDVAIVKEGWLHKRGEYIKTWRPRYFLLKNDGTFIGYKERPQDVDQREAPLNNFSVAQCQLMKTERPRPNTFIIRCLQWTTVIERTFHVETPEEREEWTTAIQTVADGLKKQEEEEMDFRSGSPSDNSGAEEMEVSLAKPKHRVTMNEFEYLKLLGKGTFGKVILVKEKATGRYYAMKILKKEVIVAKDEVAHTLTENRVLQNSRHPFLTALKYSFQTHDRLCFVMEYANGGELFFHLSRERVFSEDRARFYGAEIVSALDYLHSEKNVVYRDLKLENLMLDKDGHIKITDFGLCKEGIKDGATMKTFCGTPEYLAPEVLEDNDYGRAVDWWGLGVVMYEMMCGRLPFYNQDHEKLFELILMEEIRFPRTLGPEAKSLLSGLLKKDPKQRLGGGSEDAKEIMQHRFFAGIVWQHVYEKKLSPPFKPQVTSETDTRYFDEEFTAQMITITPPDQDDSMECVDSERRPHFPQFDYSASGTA
T2 sequence (P31749 whole entry): as the sequence (P31749 whole entry S473D) above, with D473S counted along it

B1: purified isolated FK506-binding domain of FKBP51 (FKBP51FK1) (domain or fragment, UniProt Q13451 1-140, looked up)
chain: MTTDEGAKNNEESPTATVAEQGEDITSKKDRGVLKIVKRVGNGEETPMIGDKVYVHYKGKLSNGKKFDSSHDRNEPFVFSLGKGQVIKAWDIGVATMKKGEICHLLCKPEYAYGSAGSLPKIPSNATLFFEIELLDFKGE
notes: detection was with an antibody against the FK1 domain; also called FLAG-tagged FKBP51FK1; source: purified
In the case of B1, the binding result in the assay with GST_Akt1^S473D is recorded as “binds”.

B2: purified FKBP52 (natural protein, UniProt Q02790 1-459, looked up)
chain: MTAEEMKATESGAQSAPLPMEGVDISPKQDEGVLKVIKREGTGTEMPMIGDRVFVHYTGWLLDGTKFDSSLDRKDKFSFDLGKGEVIKAWDIAIATMKVGEVCHITCKPEYAYGSAGSPPKIPPNATLVFEVELFEFKGEDLTEEEDGGIIRRIQTRGEGYAKPNEGAIVEVALEGYYKDKLFDQRELRFEIGEGENLDLPYGLERAIQRMEKGEHSIVYLKPSYAFGSVGKEKFQIPPNAELKYELHLKSFEKAKESWEMNSEEKLEQSTIVKERGTVYFKEGKYKQALLQYKKIVSWLEYESSFSNEEAQKAQALRLASHLNLAMCHLKLQAFSAAIESCNKALELDSNNEKGLFRRGEAHLAVNDFELARADFQKVLQLYPNNKAAKTQLAVCQQRIRRQLAREKKLYANMFERLAEEENKAKAEASSGDHPTDTEMKEEQKSNTAGSQSQVETEA
notes: FKBP52, His-tagged full length
On to B2, for which the binding result in the assay with GST_Akt1^S473D is “binds”.

B3: purified FKBP51 ΔFK1_FLAG (domain or fragment, UniProt Q13451 143-457, looked up)
chain: FEDGGIIRRTKRKGEGYSNPNEGATVEIHLEGRCGGRMFDCRDVAFTVGEGEDHDIPIGIDKALEKMQREEQCILYLGPRYGFGEAGKPKFGIEPNAELIYEVTLKSFEKAKESWEMDTKEKLEQAAIVKEKGTVYFKGGKYMQAVIQYGKIVSWLEMEYGLSEKESKASESFLLAAFLNLAMCYLKLREYTKAVECCDKALGLDSANEKGLYRRGEAQLLMNEFESAKGDFEKVLEVNPQNKAARLQISMCQKKAKEHNERDRRIYANMFKKFAEQDAKEEANKAMGKKTSEGVTNEKGTDSQAMEEEKPEGHV
notes: FKBP51 without the FK1 domain; It was the only construct not checked by active site titration; also called FKBP51 ΔFK1 construct; pProExHta_ΔFK1; source: purified
For B3, the binding result with GST_Akt1^S473D is “binds”.

B4: purified FLAG-tagged FKBP51 (natural protein, UniProt Q13451 1-457, looked up)
chain: MTTDEGAKNNEESPTATVAEQGEDITSKKDRGVLKIVKRVGNGEETPMIGDKVYVHYKGKLSNGKKFDSSHDRNEPFVFSLGKGQVIKAWDIGVATMKKGEICHLLCKPEYAYGSAGSLPKIPSNATLFFEIELLDFKGEDLFEDGGIIRRTKRKGEGYSNPNEGATVEIHLEGRCGGRMFDCRDVAFTVGEGEDHDIPIGIDKALEKMQREEQCILYLGPRYGFGEAGKPKFGIEPNAELIYEVTLKSFEKAKESWEMDTKEKLEQAAIVKEKGTVYFKGGKYMQAVIQYGKIVSWLEMEYGLSEKESKASESFLLAAFLNLAMCYLKLREYTKAVECCDKALGLDSANEKGLYRRGEAQLLMNEFESAKGDFEKVLEVNPQNKAARLQISMCQKKAKEHNERDRRIYANMFKKFAEQDAKEEANKAMGKKTSEGVTNEKGTDSQAMEEEKPEGHV
notes: FKBP51, His-tagged full length; also called FKBP51_FLAG; purified FKBP51
Turning to B4, the binding result (in assay [1]; in the assay with GST_Akt1^S473D) was “binds” each time.

(Values after article PMC3585324, “InterAKTions with FKBPs - Mutational and Pharmacological Exploration” (PLoS ONE, 2013).)
